Measured values reported in patent US20230235080A1, “TROPHOBLAST CELL-SURFACE ANTIGEN-2 (TROP-2) ANTIBODIES” (Bionecure Therapeutics, Inc., priority 2020, published 2023).
Like-named read-outs stand apart in the source and are kept apart here.

B1: humanized IgG #118-2-5 Hu(A2)/LuX (antibody, V domains shown)
VH: QVQLQESGPGLVKPSETLSLTCTVSGFSLTSYGVNWIRQPPGKGLEWIGVMWAGGSTNYNSALMSRVTISKDTSKNQFSLKLSSVTAADTAVYYCARDENWDGAWFAYWGQGTLVTVSS
VL: DIVMTQSPDSLAVSLGERATINCKSSQSLLNSGTRKNYLAWYQQKPGQPPKLLIYWASSRESGVPDRFSGSGSGTDFTLTISSLQAEDVAVYYCKQSYNLFTFGGGTKVEIK
notes: Second round of humanization
B2: humanized IgG #118-2-5 HuA/Lu(X4) (antibody, V domains shown)
VH: QVQLQESGPGLVKPSETLSLTCTVSGFSLTSYGVNWIRQPPGKGLEWIGVMWAGGSTNYNSALMSRVTISVDTSKNQFSLKLSSVTAADTAVYYCARDENWDGAWFAYWGQGTLVTVSS
VL: DIVMTQSPDSLAVSLGERATINCKSSQSLLNSGTRKNYLAWYQQKPGQPPKLLISWASSRESGVPDRFSGSGSGTDFTLTISSLQAEDVAVYYCKQSYNLFTFGGGTKVEIK
notes: Second round of humanization
B3: humanized IgG #118-2-5 Hu(A5)/LuX (antibody, V domains shown)
VH: QVQLQESGPGLVKPSETLSLTCTVSGFSLTSYGVNWIRQPPGKGLEWIGVMWAGGSTNYNSALMSRVTISVDTSKNQFSLKLSSVTAADTAMYYCARDENWDGAWFAYWGQGTLVTVSS
VL: DIVMTQSPDSLAVSLGERATINCKSSQSLLNSGTRKNYLAWYQQKPGQPPKLLIYWASSRESGVPDRFSGSGSGTDFTLTISSLQAEDVAVYYCKQSYNLFTFGGGTKVEIK
notes: Second round of humanization
B4: humanized IgG #118-2-5 HuA/Lu(X5) (antibody, V domains shown)
VH: QVQLQESGPGLVKPSETLSLTCTVSGFSLTSYGVNWIRQPPGKGLEWIGVMWAGGSTNYNSALMSRVTISVDTSKNQFSLKLSSVTAADTAVYYCARDENWDGAWFAYWGQGTLVTVSS
VL: DIVMTQSPDSLAVSLGERATINCKSSQSLLNSGTRKNYLAWYQQKPGQPPKLLIYWASSRESGVPDRFSGSGSGTDFTLTISSVQAEDVAVYYCKQSYNLFTFGGGTKVEIK
notes: Second round of humanization
B5: humanized IgG #118-2-5 HuB/LuX (antibody, V domains shown)
VH: QVQLKQSGPGLVAPSQSLSITCTVSGFSLTSYGVNWIRQPPGKGLEWIGVMWAGGSTNYNSALMSRVTISVDTSKNQFSLKLSSVTAADTAVYYCARDENWDGAWFAYWGQGTLVTVSS
VL: DIVMTQSPDSLAVSLGERATINCKSSQSLLNSGTRKNYLAWYQQKPGQPPKLLIYWASSRESGVPDRFSGSGSGTDFTLTISSLQAEDVAVYYCKQSYNLFTFGGGTKVEIK
notes: Full-length IgG expressed in HEK293-6E cells; also called 2 (HuB/LuX)
B6: humanized IgG #118-2-5 HuB/LuY (antibody, V domains shown)
VH: QVQLKQSGPGLVAPSQSLSITCTVSGFSLTSYGVNWIRQPPGKGLEWIGVMWAGGSTNYNSALMSRVTISVDTSKNQFSLKLSSVTAADTAVYYCARDENWDGAWFAYWGQGTLVTVSS
VL: DIVMTQSPSSLAVSLGERATMSCKSSQSLLNSGTRKNYLAWYQQKPGQPPKLLISWASSRESGVPDRFSGSGSGTDFTLTISSVQAEDLAVYYCKQSYNLFTFGGGTKVEIK
notes: Full-length IgG expressed in HEK293-6E cells; also called 6 (HuB/LuY)
B7: humanized IgG #118-2-5 Hu(A4)/LuX (antibody, V domains shown)
VH: QVQLQESGPGLVKPSETLSLTCTVSGFSLTSYGVNWIRQPPGKGLEWIGVMWAGGSTNYNSALMSRVTISVDTSKNQFSLKLSSVQAADTAVYYCARDENWDGAWFAYWGQGTLVTVSS
VL: DIVMTQSPDSLAVSLGERATINCKSSQSLLNSGTRKNYLAWYQQKPGQPPKLLIYWASSRESGVPDRFSGSGSGTDFTLTISSLQAEDVAVYYCKQSYNLFTFGGGTKVEIK
notes: Second round of humanization
B8: humanized IgG #118-2-5 HuA/Lu(X6) (antibody, V domains shown)
VH: QVQLQESGPGLVKPSETLSLTCTVSGFSLTSYGVNWIRQPPGKGLEWIGVMWAGGSTNYNSALMSRVTISVDTSKNQFSLKLSSVTAADTAVYYCARDENWDGAWFAYWGQGTLVTVSS
VL: DIVMTQSPDSLAVSLGERATINCKSSQSLLNSGTRKNYLAWYQQKPGQPPKLLIYWASSRESGVPDRFSGSGSGTDFTLTISSLQAEDLAVYYCKQSYNLFTFGGGTKVEIK
notes: Second round of humanization
B9: humanized IgG #118-2-5 HuA/Lu(X1) (antibody, V domains shown)
VH: QVQLQESGPGLVKPSETLSLTCTVSGFSLTSYGVNWIRQPPGKGLEWIGVMWAGGSTNYNSALMSRVTISVDTSKNQFSLKLSSVTAADTAVYYCARDENWDGAWFAYWGQGTLVTVSS
VL: DIVMTQSPSSLAVSLGERATINCKSSQSLLNSGTRKNYLAWYQQKPGQPPKLLIYWASSRESGVPDRFSGSGSGTDFTLTISSLQAEDVAVYYCKQSYNLFTFGGGTKVEIK
notes: Second round of humanization
B10: humanized IgG #118-2-5 HuA/Lu(X2) (antibody, V domains shown)
VH: QVQLQESGPGLVKPSETLSLTCTVSGFSLTSYGVNWIRQPPGKGLEWIGVMWAGGSTNYNSALMSRVTISVDTSKNQFSLKLSSVTAADTAVYYCARDENWDGAWFAYWGQGTLVTVSS
VL: DIVMTQSPDSLAVSLGERATMNCKSSQSLLNSGTRKNYLAWYQQKPGQPPKLLIYWASSRESGVPDRFSGSGSGTDFTLTISSLQAEDVAVYYCKQSYNLFTFGGGTKVEIK
notes: Second round of humanization
B11: humanized IgG #118-2-5 HuA/LuY (antibody, V domains shown)
VH: QVQLQESGPGLVKPSETLSLTCTVSGFSLTSYGVNWIRQPPGKGLEWIGVMWAGGSTNYNSALMSRVTISVDTSKNQFSLKLSSVTAADTAVYYCARDENWDGAWFAYWGQGTLVTVSS
VL: DIVMTQSPSSLAVSLGERATMSCKSSQSLLNSGTRKNYLAWYQQKPGQPPKLLISWASSRESGVPDRFSGSGSGTDFTLTISSVQAEDLAVYYCKQSYNLFTFGGGTKVEIK
notes: Full-length IgG expressed in HEK293-6E cells
B12: humanized IgG #118-2-5 HuD/LuX (antibody, V domains shown)
VH: QVQLKESGPGLVAPSETLSITCTVSGFSLTSYGVNWIRQPPGKGLEWLGVMWAGGSTNYNSALMSRLTISKDTSKNQVSLKLSSVQAADTAMYYCARDENWDGAWFAYWGQGTLVTVSS
VL: DIVMTQSPDSLAVSLGERATINCKSSQSLLNSGTRKNYLAWYQQKPGQPPKLLIYWASSRESGVPDRFSGSGSGTDFTLTISSLQAEDVAVYYCKQSYNLFTFGGGTKVEIK
notes: Full-length IgG expressed in HEK293-6E cells; also called 4 (HuD/LuX)
B13: humanized IgG #118-2-5 Hu(A3)/LuX (antibody, V domains shown)
VH: QVQLQESGPGLVKPSETLSLTCTVSGFSLTSYGVNWIRQPPGKGLEWIGVMWAGGSTNYNSALMSRVTISVDTSKNQVSLKLSSVTAADTAVYYCARDENWDGAWFAYWGQGTLVTVSS
VL: DIVMTQSPDSLAVSLGERATINCKSSQSLLNSGTRKNYLAWYQQKPGQPPKLLIYWASSRESGVPDRFSGSGSGTDFTLTISSLQAEDVAVYYCKQSYNLFTFGGGTKVEIK
notes: Second round of humanization
B14: #125-1-5 mouse H14-4/L3-4 (antibody, V domains shown)
VH: QIQLVQSGPELVKPGASVKMSCKASGYTFTTYVIHWVKQKPGQGLEWIGYINPNNDGTKYNEKFKGKATLISDKSSTTAYMEVRGLTSEDSAVYYCARPHFETHAMDYWGQGTSVTVSS
VL: DIQMTQSPSSFSVSLGDSVTITCKASEDIFNRLAWYQQKPGNAPRLLISGATSLETGVPSRFSGGGSGKEYTLSITSLQNEDVATYYCQQYWNTWTFGGGTKLEIK

How the values were obtained:
[1] = target: T1, human Trop-2 on Trop-2 positive cancer cells (human, UniProt P09758 27-323); assay: cell-based or functional assay
T1 sequence (looked up): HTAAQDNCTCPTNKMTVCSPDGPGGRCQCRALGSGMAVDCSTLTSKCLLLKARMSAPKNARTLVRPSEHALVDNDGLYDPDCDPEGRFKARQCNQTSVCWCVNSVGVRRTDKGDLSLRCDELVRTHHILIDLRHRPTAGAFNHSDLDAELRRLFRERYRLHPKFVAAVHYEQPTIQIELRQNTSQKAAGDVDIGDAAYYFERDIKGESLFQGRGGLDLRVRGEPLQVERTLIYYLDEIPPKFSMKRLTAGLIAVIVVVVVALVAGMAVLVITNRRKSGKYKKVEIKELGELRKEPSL

[2] = target: T2, human Trop-2-ECD-6His fusion protein (human, UniProt P09758 27-274); assay: antigen binding ELISA on immobilized human Trop-2-ECD-6His
T2 construct: Expressed in a human 293 cell line; also called huTrop-2; human Trop-2 antigen
T2 sequence: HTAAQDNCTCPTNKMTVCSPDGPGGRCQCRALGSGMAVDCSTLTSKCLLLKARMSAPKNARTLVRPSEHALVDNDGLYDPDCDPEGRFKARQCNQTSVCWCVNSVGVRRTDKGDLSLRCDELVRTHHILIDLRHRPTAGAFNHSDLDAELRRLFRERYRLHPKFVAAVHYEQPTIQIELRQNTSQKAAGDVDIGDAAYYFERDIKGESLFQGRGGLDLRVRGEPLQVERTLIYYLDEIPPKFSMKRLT

[3] = target: T1, human Trop-2 on Trop-2 positive cancer …; assay: cell-based or functional assay; remark: listed apart in the source
[4] = target: T2, human Trop-2-ECD-6His fusion protein; assay: antigen binding ELISA on immobilized human Trop-2-ECD-6His; remark: listed apart in the source
[5] = target: T3, human EPCAM-His (human, UniProt P16422 24-265); assay: ELISA on coated antigen, one antibody dilution (concentration not given), detected by GAH-HRP; y axis without a label (OD450 by the text)
T3 construct: also called hEPCAM
T3 sequence (looked up): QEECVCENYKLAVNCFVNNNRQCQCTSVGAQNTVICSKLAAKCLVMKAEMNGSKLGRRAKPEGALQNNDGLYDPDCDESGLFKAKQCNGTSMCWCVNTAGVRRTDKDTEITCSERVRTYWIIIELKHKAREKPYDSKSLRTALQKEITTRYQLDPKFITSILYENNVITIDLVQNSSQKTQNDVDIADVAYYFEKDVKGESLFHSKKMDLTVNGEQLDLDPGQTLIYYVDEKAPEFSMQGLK

[6] = target: T4, mouse Trop-2-His (mouse, UniProt Q8BGV3 25-270); assay: as above
T4 sequence (looked up): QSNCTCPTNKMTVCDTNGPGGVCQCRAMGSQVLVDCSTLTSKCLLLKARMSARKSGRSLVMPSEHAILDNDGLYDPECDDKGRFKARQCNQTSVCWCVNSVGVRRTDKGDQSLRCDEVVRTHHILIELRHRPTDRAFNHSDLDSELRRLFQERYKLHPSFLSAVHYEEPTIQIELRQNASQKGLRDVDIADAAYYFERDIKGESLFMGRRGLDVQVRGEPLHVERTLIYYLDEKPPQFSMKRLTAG

[7] = target: T1, human Trop-2 on Trop-2 positive cancer …; assay: cell-based or functional assay; remark: listed apart in the source

Binder | Internalization rate (flow cytometry, MDA-MB-468 cells) [1] [%] | EC50 [2] [nM] | Internalization rate (flow cytometry, MDA-MB-468 cells) [3] [%] | EC50 [4] [nM] | binding result [5] | binding result [6] | Internalization rate (flow cytometry, MDA-MB-468 cells) [7] [%]
B1 | 14.6 | 0.37 | – | – | – | – | –
B2 | 61.5 | 0.12 | – | – | – | – | –
B3 | 11.5 | 0.34 | – | – | – | – | –
B4 | 19.7 | 0.31 | – | – | – | – | –
B5 | – | – | 75 | 0.164 | no binding | no binding | –
B6 | – | – | -8.5 | 0.004 | no binding | no binding | –
B7 | 52.8 | 0.39 | – | – | – | – | –
B8 | 46.4 | 0.26 | – | – | – | – | –
B9 | 48.9 | 0.26 | – | – | – | – | –
B10 | 43.2 | 0.36 | – | – | – | – | –
B11 | – | – | -14.7 | 0.016 | no binding | no binding | –
B12 | – | – | -7.8 | 0.011 | no binding | no binding | –
B13 | 55.8 | 0.31 | – | – | – | – | –
B14 | – | – | – | – | – | – | 5.5
